Data on one protein can be found in PMC7411048, “ATP-dependent hydroxylation of an unactivated primary carbon with water” (Nature Communications, 2020).

Substrate in data set [1]: CC(C)=CCC[C@@H](C)[C@H]1CC[C@H]2[C@@H]3CCC4=CC(=O)C=C[C@]4(C)[C@H]3CC[C@]12C
Nature of the data set: UPLC assay of DDO hydroxylation to 26-OH-DDO. It counts as biochemical, Sterolibacterium denitrificans. Particulars: 5 mM K3[Fe(CN)6] as electron acceptor, 50 mM MOPS/KOH pH 7.0, 6% HPCD, 30 °C, anaerobic, enriched enzyme.

Substrate in data set [2]: C/C(=C\CC[C@@H](C)[C@H]1CC[C@H]2[C@@H]3CCC4=CC(=O)C=C[C@]4(C)[C@H]3CC[C@]12C)CO
Nature of the data set: UPLC assay of 26-OH-DDO dehydrogenation to DDO-26-al. Particulars: 5 mM K3[Fe(CN)6] as electron acceptor, 50 mM MOPS/KOH pH 7.0, 6% HPCD, 30 °C, anaerobic, enriched enzyme. It counts as biochemical, Sterolibacterium denitrificans.

B1: S26DH1 (desmost-1,4-dien-3-one (DDO) hydroxylase; DH5) (Sterolibacterium denitrificans) (protein)
chain: PLQHFKGTTASGRFDLGPRTTPKLGNWQDLYRQRWTWDKVAKGSHGWANCRSACEWDLYVKDGVVVREEQSATYEASEPGIPDFNPRGCQKGACYTEVMYGPSRTTVPLKRVGPRGSGKWEKISWEQALREIAVKTVDAAEKWGTDTIYQDLGPNFDFGASTAGRFKFQFMAGGIFADNWAEIGDLNVGASITVGAAHLGGSADEWFLSDFIVVWMMNPSVTQIPDAHFLYEARYNGTELCVIDPQYSATAIHADQWLPLESGTDAALGLAVARYLLDTGAIDLPYIREQTDLPLLARLDTGRFLRESDLKAGGDEDQLYMWHPQKNAAVPAPGCLKNTTRSLKLDFEPPIDGQWKIKLANGEEVVVVPVGAMLKEHLDPWTFEHAAQVTHLHIDQIRKFAEGWAKAERPMVLSSWGSNRYVHSDLMNRTKMLLLMLKGALGKKGAGYQATGWVDLDGFGNAMQMEKSGMTGRLAVMLNAMPPKELFNAIVDIIKKRKTENDVALEGENNYLRNKLCTSDVVEVNLKSEGYRAALSKEQEGLYPRELSDYYDEAHEKGWAPGLPRKNTPKIFFSGGSNLLRRNNLPQYLKAHIWDQMDCIVDVNPKYSYTGTQADYILPAAGWYEKTGIKYTMSYIPYLHYCDAAVPPLAESKGEWEIYWLLTREMENYAKEKNQPILDGCGRGTIDMKTIHQRYTNQGDLGQHDQDKVTEEILRSESTKGMTVEGLRQTGIAKYTATGKNVQATALNNPDWKGEGVLTTLTRFTVHKEPWPTYSGRISSFIDHPWFIEGHEQFATHKDSPKAGGDYPFIFVSCHARWSIHSTWRDTPMMLRLQRGEPLVYLNPTDAAKIGVKDFEYVEIYNNYGSIRMRLKVTAMVRPGVAYYYHAWEPHQFPNHESYKNLIPGIVQPLHYAGGYGHINHALNRFQPGSAVQDTRIGIKPWTGQATGVKPVVVTAEEAAIAERANQAI
notes: alpha-beta-gamma complex, Mo-cofactor/FeS/heme b; produced in Thauera aromatica K172 with delta-chaperone (SdhD, delta4); enriched by three columns; with Steroid C26 dehydrogenase 1 beta subunit (FeS electron transfer subunit); Steroid C26 dehydrogenase 1 gamma subunit (heme b subunit)
On to B1, for which the Km – broadly, the concentration of substrate that gives half-maximal velocity – is given as 123 ± 25 µM in data set [1] and 83 ± 12 µM in data set [2].
